Source: patent publication US20260167699A1 (Chugai, published 2026)
Positions count from the first letter of the chain named.

T1: FcγRIIa(R) extracellular domain, His-tagged (human, UniProt P12318 34-217)
T1 construct: extracellular domain; also called 2aR
T1 sequence: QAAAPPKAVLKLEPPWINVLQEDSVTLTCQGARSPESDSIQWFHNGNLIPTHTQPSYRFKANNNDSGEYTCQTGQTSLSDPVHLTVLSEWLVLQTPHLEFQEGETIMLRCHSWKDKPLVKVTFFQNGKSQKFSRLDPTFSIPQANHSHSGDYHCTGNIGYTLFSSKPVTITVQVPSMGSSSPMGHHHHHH

T2: FcγRIIa(H) extracellular domain, His-tagged (human, UniProt P12318 34-217)
T2 construct: extracellular domain; also called 2aH
T2 sequence: T1 sequence with R134H

T3: FcγRIIb extracellular domain, His-tagged (human, UniProt P31994 43-217)
T3 construct: extracellular domain; also called 2b
T3 sequence: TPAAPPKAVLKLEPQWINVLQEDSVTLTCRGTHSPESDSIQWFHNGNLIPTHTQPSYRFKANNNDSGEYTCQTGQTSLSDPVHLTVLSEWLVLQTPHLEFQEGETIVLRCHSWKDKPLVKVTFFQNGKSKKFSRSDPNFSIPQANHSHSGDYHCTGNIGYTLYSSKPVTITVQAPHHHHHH

B1: GpH7-A5/GpH7-B3 variant P271_14T/GpL16-k0 (antibody, human IgG1, kappa)
heavy 1: not shown
heavy 2: not shown
light: DIVMTQSPLSLPVTPGEPASISCQASESLVHSNRNTYLHWYLQKPGQSPQLLIYKVSNRFSGVPDRFSGSGSGTDFTLKISRVEAEDVGVYYCSQNTHVPPTFGQGTKVEIERTVAAPSVFIFPPSDEQLKSGTASVVCLLNNFYPREAKVQWKVDNALQSGNSQESVTEQDSKDSTYSLSSTLTLSKADYEKHKVYACEVTHQGLSSPVTKSFNRGEC
B2: GpH7-A5/GpH7-B3 variant Q295_04F/GpL16-k0 (antibody, human IgG1, kappa)
heavy 1: not shown
heavy 2: not shown
light: B1 light
B3: GpH7-A5/GpH7-B3 variant Q295_09D/GpL16-k0 (antibody, human IgG1, kappa)
heavy 1: not shown
heavy 2: not shown
light: B1 light
B4: GpH7-A5/GpH7-B3 variant Q295_18N/GpL16-k0 (antibody, human IgG1, kappa)
heavy 1: not shown
heavy 2: not shown
light: B1 light
B5: GpH7-A5/GpH7-B3 variant Q295_11K/GpL16-k0 (antibody, human IgG1, kappa)
heavy 1: not shown
heavy 2: not shown
light: B1 light
B6: GpH7-A5/GpH7-B3 variant S239_01G/GpL16-k0 (antibody, human IgG1, kappa)
heavy 1: not shown
heavy 2: not shown
light: B1 light
B7: GpH7-A5/GpH7-B3 variant Q295_02A/GpL16-k0 (antibody, human IgG1, kappa)
heavy 1: not shown
heavy 2: not shown
light: B1 light
B8: GpH7-A5/GpH7-B3 variant Q295_13S/GpL16-k0 (antibody, human IgG1, kappa)
heavy 1: not shown
heavy 2: not shown
light: B1 light
B9: GpH7-A5/GpH7-B3 variant Q295_05P/GpL16-k0 (antibody, human IgG1, kappa)
heavy 1: not shown
heavy 2: not shown
light: B1 light
B10: GpH7-A5/GpH7-B3 variant P271_18N/GpL16-k0 (antibody, human IgG1, kappa)
heavy 1: not shown
heavy 2: not shown
light: B1 light
B11: GpH7-A5/GpH7-B3 variant S239_03V/GpL16-k0 (antibody, human IgG1, kappa)
heavy 1: not shown
heavy 2: not shown
light: B1 light
B12: GpH7-A5/GpH7-B3 variant Q295_03V/GpL16-k0 (antibody, human IgG1, kappa)
heavy 1: not shown
heavy 2: not shown
light: B1 light
B13: GpH7-A5/GpH7-B3 variant Q295_14T/GpL16-k0 (antibody, human IgG1, kappa)
heavy 1: not shown
heavy 2: not shown
light: B1 light
B14: GpH7-A5/GpH7-B3 variant Q295_07I/GpL16-k0 (antibody, human IgG1, kappa)
heavy 1: not shown
heavy 2: not shown
light: B1 light
B15: GpH7-A5/GpH7-B3 variant S239_06M/GpL16-k0 (antibody, human IgG1, kappa)
heavy 1: not shown
heavy 2: not shown
light: B1 light
B16: GpH7-A5/GpH7-B3 variant Q295_10E/GpL16-k0 (antibody, human IgG1, kappa)
heavy 1: not shown
heavy 2: not shown
light: B1 light
B17: GpH7-A5/GpH7-B3 variant P271_16H/GpL16-k0 (antibody, human IgG1, kappa)
heavy 1: not shown
heavy 2: not shown
light: B1 light
B18: GpH7-A5/GpH7-B3 variant Q295_16H/GpL16-k0 (antibody, human IgG1, kappa)
heavy 1: not shown
heavy 2: not shown
light: B1 light
B19: GpH7-A5/GpH7-B3 variant Q295_12R/GpL16-k0 (antibody, human IgG1, kappa)
heavy 1: not shown
heavy 2: not shown
light: B1 light
B20: GpH7-A5/GpH7-B3 variant Q295_08L/GpL16-k0 (antibody, human IgG1, kappa)
heavy 1: not shown
heavy 2: not shown
light: B1 light
B21: GpH7-A5/GpH7-B3 variant Q295_06M/GpL16-k0 (antibody, human IgG1, kappa)
heavy 1: not shown
heavy 2: not shown
light: B1 light
B22: GpH7-A5/GpH7-B3 variant S239_02A/GpL16-k0 (antibody, human IgG1, kappa)
heavy 1: not shown
heavy 2: not shown
light: B1 light
B23: GpH7-A5/GpH7-B3 variant P271_15Y/GpL16-k0 (antibody, human IgG1, kappa)
heavy 1: not shown
heavy 2: not shown
light: B1 light
B24: GpH7-A5/GpH7-B3 variant P271_20W/GpL16-k0 (antibody, human IgG1, kappa)
heavy 1: not shown
heavy 2: not shown
light: B1 light
B25: GpH7-A5/GpH7-B3 variant Q295_15Y/GpL16-k0 (antibody, human IgG1, kappa)
heavy 1: not shown
heavy 2: not shown
light: B1 light
B26: GpH7-A5/GpH7-B3 variant P271_19Q/GpL16-k0 (antibody, human IgG1, kappa)
heavy 1: not shown
heavy 2: not shown
light: B1 light

biological target: T4, FcγRIa extracellular domain, His-tagged (human, UniProt P12314 16-292); assay: SPR, vs GpH7-A5/GpH7-B3/GpL16-k0 =100
T4 construct: extracellular domain; also called 1a
T4 sequence (P12314 other isoform, or with tags, fused parts or gaps): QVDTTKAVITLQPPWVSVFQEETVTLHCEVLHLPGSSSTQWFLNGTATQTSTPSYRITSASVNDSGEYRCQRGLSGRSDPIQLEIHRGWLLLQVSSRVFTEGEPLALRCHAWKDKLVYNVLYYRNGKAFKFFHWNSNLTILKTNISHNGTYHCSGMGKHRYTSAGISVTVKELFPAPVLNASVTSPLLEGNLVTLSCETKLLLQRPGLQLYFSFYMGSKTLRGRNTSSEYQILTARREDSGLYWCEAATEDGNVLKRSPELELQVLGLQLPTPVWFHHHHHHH

Binder | He/Con 1a
B1 | 101 % of control
B2 | 101 % of control
B3 | 98.5 % of control
B4 | 101 % of control
B5 | 99.7 % of control
B6 | 104 % of control
B7 | 103 % of control
B8 | 100 % of control
B9 | 102 % of control
B10 | 102 % of control
B11 | 98.9 % of control
B12 | 102 % of control
B13 | 101 % of control
B14 | 101 % of control
B15 | 102 % of control
B16 | 101 % of control
B17 | 100 % of control
B18 | 101 % of control
B19 | 98.8 % of control
B20 | 103 % of control
B21 | 102 % of control
B22 | 103 % of control
B23 | 101 % of control
B24 | 101 % of control
B25 | 100 % of control
B26 | 102 % of control

biological target: T1, FcγRIIa(R) extracellular domain, …; assay: SPR, vs GpH7-A5/GpH7-B3/GpL16-k0 =100

Binder | He/Con 2aR
B1 | 94.7 % of control
B2 | 82.8 % of control
B3 | 68.7 % of control
B4 | 81.7 % of control
B5 | 88.1 % of control
B6 | 120 % of control
B7 | 91.5 % of control
B8 | 73 % of control
B9 | 86.6 % of control
B10 | 97.7 % of control
B11 | 94.1 % of control
B12 | 90.3 % of control
B13 | 79.2 % of control
B14 | 97.3 % of control
B15 | 94.7 % of control
B16 | 101 % of control
B17 | 79 % of control
B18 | 80.5 % of control
B19 | 82.2 % of control
B20 | 118 % of control
B21 | 101 % of control
B22 | 89.8 % of control
B23 | 70 % of control
B24 | 76.6 % of control
B25 | 82 % of control
B26 | 95.1 % of control

biological target: T2, FcγRIIa(H) extracellular domain, …; assay: SPR, vs GpH7-A5/GpH7-B3/GpL16-k0 =100

Binder | He/Con 2aH
B1 | 69.8 % of control
B2 | 87.4 % of control
B3 | 62.6 % of control
B4 | 87.8 % of control
B5 | 102 % of control
B6 | 93.8 % of control
B7 | 101 % of control
B8 | 79.5 % of control
B9 | 118 % of control
B10 | 94.5 % of control
B11 | 88 % of control
B12 | 106 % of control
B13 | 86.2 % of control
B14 | 117 % of control
B15 | 95.4 % of control
B16 | 112 % of control
B17 | 76.4 % of control
B18 | 90.1 % of control
B19 | 96.4 % of control
B20 | 128 % of control
B21 | 111 % of control
B22 | 89.9 % of control
B23 | 74 % of control
B24 | 88.7 % of control
B25 | 89.3 % of control
B26 | 90.7 % of control

biological target: T3, FcγRIIb extracellular domain, His-tagged; assay: SPR, vs GpH7-A5/GpH7-B3/GpL16-k0 =100

Binder | He/Con 2b
B1 | 107 % of control
B2 | 72.6 % of control
B3 | 68.1 % of control
B4 | 72.8 % of control
B5 | 79 % of control
B6 | 146 % of control
B7 | 89.4 % of control
B8 | 63.8 % of control
B9 | 75.7 % of control
B10 | 105 % of control
B11 | 110 % of control
B12 | 84.9 % of control
B13 | 74.9 % of control
B14 | 94.5 % of control
B15 | 102 % of control
B16 | 106 % of control
B17 | 76.2 % of control
B18 | 70.3 % of control
B19 | 73.1 % of control
B20 | 134 % of control
B21 | 101 % of control
B22 | 91.6 % of control
B23 | 58.6 % of control
B24 | 65.1 % of control
B25 | 73.3 % of control
B26 | 99.3 % of control

biological target: T5, FcγRIIIa extracellular domain, His-tagged (human, UniProt P08637 17-208); assay: SPR, vs GpH7-A5/GpH7-B3/GpL16-k0 =100
T5 construct: extracellular domain; also called 3a
T5 sequence (P08637 other isoform, or with tags, fused parts or gaps): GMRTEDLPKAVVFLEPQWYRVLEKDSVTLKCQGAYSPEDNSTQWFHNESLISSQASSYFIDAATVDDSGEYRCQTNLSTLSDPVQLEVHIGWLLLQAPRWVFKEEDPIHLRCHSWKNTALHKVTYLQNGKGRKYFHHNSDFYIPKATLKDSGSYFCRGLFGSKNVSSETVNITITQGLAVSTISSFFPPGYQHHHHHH

Binder | He/Con 3a
B1 | 59.2 % of control
B2 | 75.1 % of control
B3 | 85.6 % of control
B4 | 85.7 % of control
B5 | 81.8 % of control
B6 | 72 % of control
B7 | 111 % of control
B8 | 90.4 % of control
B9 | 74.4 % of control
B10 | 94 % of control
B11 | 72.4 % of control
B12 | 86.2 % of control
B13 | 120 % of control
B14 | 101 % of control
B15 | 73.9 % of control
B16 | 105 % of control
B17 | 70.3 % of control
B18 | 80.2 % of control
B19 | 73.2 % of control
B20 | 120 % of control
B21 | 100 % of control
B22 | 70.9 % of control
B23 | 62.7 % of control
B24 | 77.8 % of control
B25 | 81.5 % of control
B26 | 84.6 % of control
